In article PMC4433226:

How the values were obtained:
Ku70/Ku80 wild type [1] = target: T1, Ku70/Ku80 wild type (UniProt P12956;P13010 1-609;1-732); assay: EMSA; primarily 1:1 Ku:DNA; ELISA: 20 mM HEPES pH 7.5, 75 mM KCl, 10% glycerol, 0.005% Triton X-100, 2 mM DTT, room temperature, 1 h, 2 pmol DNA, 424 ng DNA-PKcs; EMSA: 20 ul, 500 fmol DNA, buffer as in earlier papers; settings: protein: recombinant; tags: His (Ku70); copies: 1;1; blunt
[2] = target: T2, Ku70/Ku80 wild type;DNA-PKcs (human?;human (HeLa cells), UniProt P12956;P13010;P78527 1-609;1-732;1-4128, |); assay: ELISA; ELISA: 20 mM HEPES pH 7.5, 75 mM KCl, 10% glycerol, 0.005% Triton X-100, 2 mM DTT, room temperature, 1 h, 2 pmol DNA, 424 ng DNA-PKcs; EMSA: 20 ul, 500 fmol DNA, buffer as in earlier papers; settings: protein: recombinant;native; tags: His (Ku70);; copies: 1;1;1; label: 5' biotin on one end; blunt
Ku70/Ku80 wild type [3] = target: T1, Ku70/Ku80 wild type; assay: EMSA; 1 and 2 Ku per DNA, preference for 2; ELISA: 20 mM HEPES pH 7.5, 75 mM KCl, 10% glycerol, 0.005% Triton X-100, 2 mM DTT, room temperature, 1 h, 2 pmol DNA, 424 ng DNA-PKcs; EMSA: 20 ul, 500 fmol DNA, buffer as in earlier papers; settings: protein: recombinant; tags: His (Ku70); copies: 1;1; blunt
[4] = target: T2, Ku70/Ku80 wild type;DNA-PKcs; assay: ELISA; more than double the 30bp and 400bp recruitment (Fig 4C); ELISA: 20 mM HEPES pH 7.5, 75 mM KCl, 10% glycerol, 0.005% Triton X-100, 2 mM DTT, room temperature, 1 h, 2 pmol DNA, 424 ng DNA-PKcs; EMSA: 20 ul, 500 fmol DNA, buffer as in earlier papers; settings: protein: recombinant;native; tags: His (Ku70);; copies: 1;1;1; label: 5' biotin on one end; blunt

T1 sequence (P12956 whole entry, chain 1 of 2): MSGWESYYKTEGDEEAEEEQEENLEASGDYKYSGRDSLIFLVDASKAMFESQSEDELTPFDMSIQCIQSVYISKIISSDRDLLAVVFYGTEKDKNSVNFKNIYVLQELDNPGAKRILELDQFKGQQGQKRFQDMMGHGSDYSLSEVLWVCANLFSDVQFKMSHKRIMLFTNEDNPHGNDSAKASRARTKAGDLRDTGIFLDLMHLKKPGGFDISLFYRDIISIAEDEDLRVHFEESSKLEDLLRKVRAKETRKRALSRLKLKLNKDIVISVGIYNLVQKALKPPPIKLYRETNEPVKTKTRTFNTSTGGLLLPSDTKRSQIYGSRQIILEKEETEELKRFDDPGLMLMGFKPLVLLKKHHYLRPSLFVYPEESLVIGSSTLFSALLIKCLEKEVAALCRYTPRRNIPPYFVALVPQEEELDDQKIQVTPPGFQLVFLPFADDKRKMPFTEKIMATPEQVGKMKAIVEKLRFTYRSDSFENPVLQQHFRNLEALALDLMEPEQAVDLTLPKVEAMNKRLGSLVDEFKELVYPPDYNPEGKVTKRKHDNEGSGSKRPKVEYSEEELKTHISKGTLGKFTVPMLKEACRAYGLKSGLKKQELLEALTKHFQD
T1 sequence (P13010 whole entry, chain 2 of 2): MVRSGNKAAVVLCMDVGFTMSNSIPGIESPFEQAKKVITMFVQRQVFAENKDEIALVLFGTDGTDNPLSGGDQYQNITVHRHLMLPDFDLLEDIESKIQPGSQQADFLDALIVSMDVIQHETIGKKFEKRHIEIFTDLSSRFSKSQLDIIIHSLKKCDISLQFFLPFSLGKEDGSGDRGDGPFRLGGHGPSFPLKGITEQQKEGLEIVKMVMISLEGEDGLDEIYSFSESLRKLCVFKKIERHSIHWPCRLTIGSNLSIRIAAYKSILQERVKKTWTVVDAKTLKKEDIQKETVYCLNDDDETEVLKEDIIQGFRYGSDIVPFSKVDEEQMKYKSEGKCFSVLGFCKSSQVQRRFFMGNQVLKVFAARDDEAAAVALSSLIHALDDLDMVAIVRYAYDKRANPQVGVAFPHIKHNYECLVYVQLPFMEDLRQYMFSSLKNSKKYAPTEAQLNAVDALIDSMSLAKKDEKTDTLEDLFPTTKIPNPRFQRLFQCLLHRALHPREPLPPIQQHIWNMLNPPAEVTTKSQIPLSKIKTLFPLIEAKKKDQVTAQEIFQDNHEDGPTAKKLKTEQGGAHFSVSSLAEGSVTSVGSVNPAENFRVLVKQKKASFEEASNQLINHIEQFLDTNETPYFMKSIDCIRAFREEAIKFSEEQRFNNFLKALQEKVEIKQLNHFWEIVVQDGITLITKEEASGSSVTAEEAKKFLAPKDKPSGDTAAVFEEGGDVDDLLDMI

B1: 30bp blunt (EMSA) (dsDNA)
DNA 1: CACTTCCAACAGAGGTGACACTGCCTTCAG
DNA 2: CTGAAGGCAGTGTCACCTCTGTTGGAAGTG
binding result (Ku70/Ku80 wild type [1]): binds

B2: 30bp blunt, biotinylated (dsDNA)
DNA 1: CACTTCCAACAGAGGTGACACTGCCTTCAG
DNA 2: CTGAAGGCAGTGTCACCTCTGTTGGAAGTG
binding signal [2]: > 4 fold vs DNA-PKcs without Ku

B3: 60bp blunt (EMSA) (dsDNA)
DNA 1: CTTGACCAGTAGTCTAGCACGTGACGATTGCATGCGTCAAGTAAGATGCAGATACTTAAC
DNA 2: GTTAAGTATCTGCATCTTACTTGACGCATGCAATCGTCACGTGCTAGACTACTGGTCAAG
binding result (Ku70/Ku80 wild type [3]): binds

B4: 60bp blunt, biotinylated (dsDNA)
DNA 1: CTTGACCAGTAGTCTAGCACGTGACGATTGCATGCGTCAAGTAAGATGCAGATACTTAAC
DNA 2: GTTAAGTATCTGCATCTTACTTGACGCATGCAATCGTCACGTGCTAGACTACTGGTCAAG
binding signal [4]: > 4 fold vs DNA-PKcs without Ku
